# T1: O32-15B
# T1 construct: Homotrimeric component of the O32-15 octahedral nanocage (8 trimers per cage); also called C3 trimer; trimeric component
# T1 chain: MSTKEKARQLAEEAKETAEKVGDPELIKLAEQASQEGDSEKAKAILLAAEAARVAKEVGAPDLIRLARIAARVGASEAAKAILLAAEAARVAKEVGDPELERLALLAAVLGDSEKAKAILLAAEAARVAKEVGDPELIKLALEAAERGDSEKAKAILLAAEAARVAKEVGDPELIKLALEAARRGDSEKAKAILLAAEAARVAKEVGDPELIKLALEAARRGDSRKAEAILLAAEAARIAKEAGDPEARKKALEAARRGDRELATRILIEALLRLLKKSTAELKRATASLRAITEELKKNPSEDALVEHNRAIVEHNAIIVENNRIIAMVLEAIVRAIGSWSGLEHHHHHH
# Key:
# [1] = target: T2, CpcA-PEB (Synechocystis sp., UniProt Q54715); assay: Excitation energy transfer in 2D surface arrays by FLIM / time-resolved single photon counting; details: 485 nm laser
# T2 construct: made in house; host or cells: E. coli
# Text: Native special pairs play a critical role as energy transfer acceptors for antenna proteins. To test whether our designed SP proteins participate in energy transfer with natural light-harvesting proteins, we analyzed excitation energy transfer in 2D surface arrays using Fluorescence Lifetime Imaging Microscopy (FLIM) in combination with nanoimprint lithography (Huang, Vasilev, and Hunter 2020) (FIG. 5). We selected the cyanobacterial antenna protein CpcA with attached phycoerythrobilin (PEB) as the energy transfer donor. CpcA-PEB was purified from E. coli, and gives a strong fluorescence emission maximum at 568 nm and emission extending past 630 nm (Barnett et al. 2017), overlapping with the excitation spectrum of Zn pheophorbide a (ZnPPa) when bound to SP2. […]
# To quantify the strength of the interaction between CpcA-PEB and SP2-ZnPPa, we used time-resolved single photon counting. The surface was illuminated with a 485 nm picosecond laser filtered at 620 nm (donor emission), and photons were counted for individual pixels (surface resolution approximately 300 nm) over time, allowing both total fluorescence intensity and lifetime to be analyzed (FIG. 5d). In regions with only CpcA-PEB, fluorescence intensity was above 4000 arbitrary units (a.u.) and the lifetime was over 2 ns (τav=2058 ps). […]
# [2] = target: T1, O32-15B; assay: negative-stain EM of two-component octahedral nanocage
# Procedure: Transmission negative-stain electron microscopy (nsEM) and image processing: SEC purified cage fractions were diluted to about 0.5 μM (monomeric component concentration) for negative-stain EM characterization. Briefly, on a glow-discharged formvar/carbon supported 400-mesh copper grid (Ted Pella, Inc.), 6 μL of protein sample were drop-casted for 2 mins. The grid was blotted and stained with 3 μL of 2% uranyl formate, blotted again, and stained with 3 μL of uranyl formate for 20 s before final blotting. Micrographs of stained samples were taken on a 120 kV Talos™ L120C transmission electron microscope. All nsEM datasets were collected using the EPU software and processed by CryoSparc™ (Punjani et al. 2017) with contrast transfer function (CTF) correction. All the particle picks were 2D classified for 20 iterations into 50 classes. Particles from selected classes were used for building the ab-initio initial model. The initial model was homogeneously refined using C₁ and the corresponding O symmetry.
# T2 sequence (Q54715 whole entry): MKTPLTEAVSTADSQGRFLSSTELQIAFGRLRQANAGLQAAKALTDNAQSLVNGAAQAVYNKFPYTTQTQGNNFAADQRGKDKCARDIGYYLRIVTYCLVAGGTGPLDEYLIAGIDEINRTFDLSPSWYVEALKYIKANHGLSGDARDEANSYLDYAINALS
Molecule,"energy transfer efficiency of CpcA-PEB to SP2-ZnPPa ([1]; 2D arrays on poly-L-lysine glass, 620 nm filter) [%]","donor fluorescence lifetime τav ([1]; regions with both CpcA-PEB and SP2-ZnPPa, 620 nm donor emission (CpcA-PEB only: 2058 ps)) [ps]",binding result [2]
"SP2-ZnPPa: SP2 protein with bound Zn pheophorbide a (ZnPPa), energy transfer acceptor (protein) SGSGSSDEEFKFLATEAKMLITAAERLAGTDPELQEMVALIKKELEQAERTFRNGDKSEAQRQLEFVLTAARAVMNVAAAANAAGTDPELIEMVLRILKQLKEAIRTFQNGDQEEAETQLRFVLRAAIAVAVVAAALVLAGTDPELQEMVKQILEELKQAIETFARGDKEKALTQLLFVAWAAHAVAMIAAAANLAGTDPRLQQQVKEILEKLKEAIETFQKGDEEQAFRQLAEVLAEAALVALRAALTN",59,839,–
"O32-15A (designed binder, Homodimeric component of the O32-15 octahedral nanocage (12 dimers per cage); also called C2 dimer (based on SP2); chlorophyll dimer component) MDEEFKFLATEAKMLITAAERLAGTDPRLQEMVALIKKELEQAERTFRNGDKSEAQRQLEFVLTAARAVMNVAAAANAAGTDPLLKAMVDAILWRLKEAIRTFQNGDEEAETQLRFVLRAAIAVAVVAAALVLAGTDPELQEMVEQIKDLLISAFMAGEKALTQLLFVAWAAHAVAMIAAAANLAGPRLQQQVKEILEKLKEAIETFQKGDEEQAFRQLAEVLAEAALVALRAALTNLEHHHHHH",–,–,binds

# From US20250326867A1, “De novo designed chlorophyll special pair proteins” (University of Washington, priority 2024, published 2025)
